# Reference: patent US20230242902A1, “A HIGHLY ERROR-PRONE […] R[…] FOR TARGETED CONTINUOUS EVOLUTION IN VIVO” (The Regents of the University of California, priority 2017, published 2023)
# Positions count from the first letter of the chain named. Names may count otherwise.
# B1: S330R: TP-DNAP1 variant (protein)
# chain: MDYKDKALNDLRNVYADFDSLPLDFRQILIKDRATLLQKEDVEKKILERQEDAKKYAEYLKQSEIPERISLPNIKRHKGVSISFEETSEDMVLEPRPFIFDGLNIRCFRRETIFSLKNKILNMVKESSSFKNVSRQSVSFMYFKIFNKGKVIASTKSVNIYEDKIDERLEDLCNNFDDVLKKIIDVTYGYESLFVSETYSYVIFYAKSIYFPQPRCVNNWGNNIPNILTFDSFKLFTANKNNVSCIKQCSRFLWQKDFNTLEEMIEYKNGNICIVTPQLHINDVRDIKSFNDIRLYSESPIKTFSVIDNTITYLFYFKEHLGVIFNITKRRHDRRVTKFSPLSKFSDVKNITVCFDIESYFDPEKESNQVNIPFICCASIIYNKVIGNIVDFEGRDCVAQMIEYVVDICGELNISSVELIAHNGGGYDFHYILSSMYNPAAIKNILIRNNSFISFNFAHDGVKFSVKDSYSFLLCSLANASKAFLNEETFKKTDFPHHDLKTADDLYKVYKEWSSVNTEINHVVEKEKLLITSEHIVNFTKNDKSKTLIEWSKDYCRNDVLVLSKVWLEFKNAVEDIFNCELVDQTMTLAGLSYKLFQANMPFDVELRHPNKEDYFNMREALIGGRCISVNGIYKDVLCLDVKSLYPASMAFYDQPYGSFKRVSSRPKDELGIYYVRVTPNRNNKSNFFPIRSHNKITYNNFEESTYIAWYTNVDIDIGLSEGHNIEYIPFDSYGNIGYSWSKKGKIFEKYIKDVLYKLKIKYEKQNNKVKRNVIKIIMNSLWGKFAQKWVNFEYFIKSEDDIDFESEEAYKIWDTDFMLIKKIKESTYSSKPIQNGVFTLSWARYHMKSIWDAGAKEGAECIYSDTDSIFVHKEHFKKNAKFMLNGLKVPIIGSEVGQLELECEFDKLLCAGKKQYMGFYTYFQDGKPCIKEKKRFKGIPSNYIIPELYAHLLSGADKEAKIQFLKFRREWGSVKGYIENKTVKAT
# B2: D407M: TP-DNAP1 variant (protein)
# chain: B1 chain with R330S, D407M
# B3: G410H: TP-DNAP1 variant (protein, listed as Kluyveromyces lactis)
# chain: B1 chain with R330S, G410H
# B4: D407C: TP-DNAP1 variant (protein)
# chain: B1 chain with R330S, D407C
# B5: D333T: TP-DNAP1 variant (protein)
# chain: B1 chain with R330S, D333T
# B6: I372C: TP-DNAP1 variant (protein)
# chain: B1 chain with R330S, I372C
# B7: D333N: TP-DNAP1 variant (protein)
# chain: B1 chain with R330S, D333N
# B8: Y382V: TP-DNAP1 variant (protein)
# chain: B1 chain with R330S, Y382V
# B9: D333N, K344R: TP-DNAP1 variant (protein)
# chain: B1 chain with R330S, D333N, K344R
# B10: V406Q: TP-DNAP1 variant (protein)
# chain: B1 chain with R330S, V406Q
# B11: I287M: TP-DNAP1 variant (protein, listed as Kluyveromyces lactis)
# chain: B1 chain with I287M, R330S
# B12: G410K: TP-DNAP1 variant (protein)
# chain: B1 chain with R330S, G410K
# B13: D333M: TP-DNAP1 variant (protein)
# chain: B1 chain with R330S, D333M
# B14: G410E: TP-DNAP1 variant (protein)
# chain: B1 chain with R330S, G410E
# B15: G410R: TP-DNAP1 variant (protein)
# chain: B1 chain with R330S, G410R
# B16: D407V, S415T: TP-DNAP1 variant (protein)
# chain: B1 chain with R330S, D407V, S415T
# B17: R395P: TP-DNAP1 variant (protein)
# chain: B1 chain with R330S, R395P
# B18: D407G: TP-DNAP1 variant (protein)
# chain: B1 chain with R330S, D407G
# B19: S289K: TP-DNAP1 variant (protein, listed as Kluyveromyces lactis)
# chain: B1 chain with S289K, R330S
# B20: V385W: TP-DNAP1 variant (protein)
# chain: B1 chain with R330S, V385W
# B21: G410Q: TP-DNAP1 variant (protein)
# chain: B1 chain with R330S, G410Q
# B22: G410L: TP-DNAP1 variant (protein)
# chain: B1 chain with R330S, G410L
# B23: G387H: TP-DNAP1 variant (protein)
# chain: B1 chain with R330S, G387H
# B24: D407F: TP-DNAP1 variant (protein)
# chain: B1 chain with R330S, D407F
# B25: Y382A: TP-DNAP1 variant (protein)
# chain: B1 chain with R330S, Y382A
# B26: D407A: TP-DNAP1 variant (protein)
# chain: B1 chain with R330S, D407A
# B27: G410I: TP-DNAP1 variant (protein)
# chain: B1 chain with R330S, G410I
# B28: K365N: TP-DNAP1 variant (protein)
# chain: B1 chain with R330S, K365N
# B29: D407H: TP-DNAP1 variant (protein)
# chain: B1 chain with R330S, D407H
# B30: D333A: TP-DNAP1 variant (protein)
# chain: B1 chain with R330S, D333A
# B31: D407T: TP-DNAP1 variant (protein)
# chain: B1 chain with R330S, D407T
# B32: V406C: TP-DNAP1 variant (protein)
# chain: B1 chain with R330S, V406C
# B33: D333V: TP-DNAP1 variant (protein)
# chain: B1 chain with R330S, D333V
# B34: G410M: TP-DNAP1 variant (protein)
# chain: B1 chain with R330S, G410M
# Tested on: p1
# Assay: p1 copy number by p1-encoded mKate2 fluorescence
# Assay type: cell-based, S. cerevisiae
# Details: OR-Y24, measured in triplicate
# How it was run: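 Steps: transform TP-DNAP1 variant into OR-Y24; passage until w.t. p1 displaced; dilute 1:10,000 and grow to saturation in triplicate; measure p1-encoded mKate2 fluorescence; convert to copy number via linear qPCR-based calibration. Four high-copy variants were checked directly by qPCR.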
row,Molecule,Mean fold-increase over w.t. (p1 copy number)
1,B1,2.21 fold
2,B2,2.71 fold
3,B3,2.19 fold
4,B4,2.26 fold
5,B5,2.41 fold
6,B6,1.73 fold
7,B7,2.07 fold
8,B8,1.62 fold
9,B9,2.07 fold
10,B10,2.16 fold
11,B11,2.39 fold
12,B12,2.53 fold
13,B13,2.6 fold
14,B14,2.37 fold
15,B15,2.87 fold
16,B16,1.95 fold
17,B17,1.91 fold

row,Molecule,Mean fold-increase over w.t. (p1 copy number)
1,B18,2.53 fold
2,B19,2.02 fold
3,B20,1.41 fold
4,B21,2.2 fold
5,B22,2.57 fold
6,B23,1.57 fold
7,B24,2.28 fold
8,B25,1.6 fold
9,B26,2.25 fold
10,B27,2.57 fold
11,B28,1.89 fold
12,B29,2.57 fold
13,B30,1.57 fold
14,B31,3.95 fold
15,B32,2.34 fold
16,B33,2.18 fold
17,B34,2.55 fold
